Test results as given in the domain aggregation screens of Martell et al. (2025).

Test: soluble fraction after stress (log2 fold change); higher = more stays soluble; pooled small domains, quantitative proteomics
Settings: stress: 50 degC
How it was run: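 After stress at 50°C, the amount of each protein still soluble was measured. This was done on pooled custom libraries of small protein domains, using high-throughput quantitative proteomics. The figure given is a base-two log fold change and stands for aggregation propensity, with higher values meaning more protein stays in solution.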

For “HMEDESSIERYLGSGAIKGIGPSLAARIVKKFGKDTFRIIEQEPERLAEIKGISERKAMEISTLMEEK”, which “soluble fraction (log2)” value is on record?
The value was 0.0193.

Which “soluble fraction (log2)” value does the source give for “HMQDLEIKINLGMTYYEVREAIGSPDIIDKINQYGRDFQMWTYYIDDKTKRYYFEDHLLTKI” here?
The value was -3.33.

Which “soluble fraction (log2)” value does the source give for “HMLDYITLSPQELGKLLSAGNGDAAMVYLYMKATGDVTLKQAETQLGMTNQNLAWAESLLKRLGLMD” here?
Its value is -0.556.

For “HMPDLKIGKDHRLAEYIETKIAEDGYSPGAVLGEIKAKGLEFETEISKPTLYSYIDKGIFLTITNKELPV”, which “soluble fraction (log2)” value is on record?
The value was 0.105.

For “HMLVVEPSAELKTIIDKTASFVARNGPEFEARIKNEQNNAKFSFLQPNDPFNPYYRAKIVELGGTV”, which “soluble fraction (log2)” value is on record?
Its value is 0.0591.

Which “soluble fraction (log2)” value does the source give for “HMNSEERVLDTASKWLVKLDEGLDESEAQVLKVWLATPLHRDTFLEMVALWDKMSVLNELADIV” here?
Its value is -1.78.

For “HMSVLPAREQVAAILRQAILLRKFKEGQDLTLKDAAELVGSSITPVREAFQILENEGLIELRPNKGAVVL”, which “soluble fraction (log2)” value is on record?
Its value is -0.284.

With “HMTSRWEIGYNVAKKYYDEHGNLDVERAVYDNFELKKWLNTQRYKNSAGTLAEKYKIKLDELGMNWER” as the sequence, how does the “soluble fraction (log2)” value read?
Its value is 0.0505.

Which “soluble fraction (log2)” value does the source give for “HMIELEGVISSVLAGTMFKVKLRGNGHEVLAHISGKMRKKFIRLVIGDAVKIEMSPYDMDKARIVYRI” here?
Its value is -0.00875.

For “HMVVVMEKNASSAEIEQVQERLRQAGFKIHLSQGVERTIIGAIGDRSQVDLGFLEALPGVEKVVPIMK”, which “soluble fraction (log2)” value is on record?
The value was 0.0845.

With “HMTVSADQTTADAVIKLIDAIGTVSKNSGSAISAARSGYDALTDAQKKLVTNYNKLTQAEQVFSSLS” as the sequence, how does the “soluble fraction (log2)” value read?
The value was 0.129.

With “HMQTTPAGHELLIRYFANGNIRERGMMKDGKRNGIWIFYDESGMEIRKTKYKMGKIISDYDLN” as the sequence, how does the “soluble fraction (log2)” value read?
Its value is -1.07.

With “HMKNLKPSTEVILKELVKRYPDQTEFRKQQIVDVGQSFGYKGKDYGPIFDADNRVKIGTYDLAGLIVPLQR” as the sequence, how does the “soluble fraction (log2)” value read?
The value was -0.0461.

Which “soluble fraction (log2)” value does the source give for “HMTNIDIEKSIKNTITANYDDVLNYHNEDDNKTFASGDSRYSFDYDEKTKTLIVFTNSKVDAVFVDGIKKK” here?
The value was -0.0966.

With “HMQADPYTVLGVLRDVTDGELKREYRKLVREHHPDALIAQGVPQEFVDIANNKLAVINAAYERIAKQRGL” as the sequence, how does the “soluble fraction (log2)” value read?
Its value is 0.00775.

With “HMEEEVKVPKIKGLTEAEAKAKLKSEGLESGTARSAYSDTVEEGHIISQSIQEGTKVPKGTAVSYEVSKGK” as the sequence, how does the “soluble fraction (log2)” value read?
The value was 0.17.

With “HMFQTAADVAYRIISQKILDGEFPPGMKLSRRKMAEVTSVSVIPVIEALKKLEEDGLVESKPQWGSFVTI” as the sequence, how does the “soluble fraction (log2)” value read?
The value was -1.27.

For “HMGFVTVTEVDTTADLKLARVYVSVLGPEEQWAKSFTALESARGFVWNWLRKHLDLRVTPQLAF”, which “soluble fraction (log2)” value is on record?
Its value is -0.984.

For “HMDERLLRLYERELQFLREGADEFAQAYPKVAGHLGLNSQSMGDPFIERLLEGLGFLTARIQLQLESEF”, which “soluble fraction (log2)” value is on record?
Its value is -0.0252.

For “HMSRVHHGFNISIARNRKGLKQAALADMLGISQQRLSQLENQRVVKDEILEKVSEATGVSVEDLKTIE”, which “soluble fraction (log2)” value is on record?
The value was -0.253.

For “HMPGGLSAEDVEKMVEKVLTVNGDVVEEIRSGRDPKGKKIKFLAGLVMRDARGQADAAAVSGILERRLKEG”, which “soluble fraction (log2)” value is on record?
The value was 0.133.

Which “soluble fraction (log2)” value does the source give for “HMYVQDPVDRLVLESALRLLREQEREIIFLHLVAGLKHREIAGLLHLPLSTVLSGYRRALTKMKSYLEE” here?
The value was -0.115.

With “HMNFTMERLYTKELTSEDIDEIKKELNSMGYTEGVEFNIIKGDKTSFIMAERQLKAKMLSHLSDLGLPRGA” as the sequence, how does the “soluble fraction (log2)” value read?
The value was -0.152.

Which “soluble fraction (log2)” value does the source give for “HMPGVTTQLHRLNGTEETYIIKRGDGVLEIDGEKSELQLGDAIIIPAGASQKISNIGDEDLE” here?
The value was -0.346.

With “HMQDVVFTVDKDQTGAEIGDMLYEKGIISSPTTFRLALRLTGSMDKLQQGYYQIPQNASLRQVIALLQKG” as the sequence, how does the “soluble fraction (log2)” value read?
Its value is -0.393.

For “HMKVIETKYNTYVVKSGDTLYSVAKKYGISVTELKEINDLSNNTLSIGQKLLVPATTIIIDE”, which “soluble fraction (log2)” value is on record?
The value was -0.117.

With “HMKSGLLNLSTRKQEKIKQALLSEFSNVSLLEAKVANIVTLAEISRGSFYTYFEDIYDAYQWLASI” as the sequence, how does the “soluble fraction (log2)” value read?
Its value is -0.26.

With “HMSEQLKQIAERIKELRNIAGLGEEELAAKLDIPVDTYREYESGNVDIPVSFLYKISGMFNVELTAIL” as the sequence, how does the “soluble fraction (log2)” value read?
The value was 0.0417.

Which “soluble fraction (log2)” value does the source give for “HMGKPAGLIRELGNHPEDEKPVTLNNGRFGPYVKHGKVMASLTKADSPDDITFDRAIELIAIKAEKMAAKG” here?
Its value is 0.184.

For “HMKHEFSEEWLDWIKSNIADGQNKNGLFKVLLNHGYAYDAVREVMQYEPTVPLDELVDPLRA”, which “soluble fraction (log2)” value is on record?
Its value is -0.139.

For “HMSTVTEVHYIAFKNGRIVDIKAALTGSAVTATSIKEQPKIENYNYTTSEVRDGILYHTYAPVA”, which “soluble fraction (log2)” value is on record?
Its value is -1.32.

With “HMTDVRFISIPIQKEHPWNRKLVSELNLPPGTLLVFLRRTGENIVPNGKTMIQEGDVLVLGASAYR” as the sequence, how does the “soluble fraction (log2)” value read?
The value was -0.295.

For “HMSQSYHLADRGQSLGTLDYQAVLVGLATGRLSPDTLSWQEGEAGWVALRQRPEFASGVSAVASL”, which “soluble fraction (log2)” value is on record?
Its value is 0.0116.

Which “soluble fraction (log2)” value does the source give for “HMGGKWKLRILLALENSAQDALRYGEIKNIVSGITDMMLSQSLRELTADGLIERRQYQEIPPKVEYRLS” here?
Its value is -2.51.

With “HMEDKIIVTVPGEYHLERIDRFLAANLEEDLSRSLIQRYIRENLITVNGEAVRANYKVKTDDEILITFPQ” as the sequence, how does the “soluble fraction (log2)” value read?
Its value is -0.603.

Which “soluble fraction (log2)” value does the source give for “HMIKILGSAYRHGLDDDDILRAWNYHIQEFFEGEDPEKIVRLGFDTHGRLLEIGGEIYPGGGEKIFHAM” here?
Its value is -0.729.

With “HMDEYGEVQALQRAGQTSEALARADRHIAAHPNDPQMRFVKANLLSAGGRAGEAETLLVQLTRD” as the sequence, how does the “soluble fraction (log2)” value read?
Its value is -0.0234.

For “HMQPETIEDATNLYLEAARATLQLIEQNNVIARDVKRLLEHLDNDMARIETLLAEMLSRRDHWLRHIH”, which “soluble fraction (log2)” value is on record?
The value was -0.12.

Which “soluble fraction (log2)” value does the source give for “HMSQDVLLKRSGDQIEVKITEVGEDYLKYKKKGFENGPDFKINTSDVFMVTFANGEKMMFEES” here?
Its value is 0.0105.

Which “soluble fraction (log2)” value does the source give for “HMGEVEVPDLVGIEAIQAKTLLFNSDFLIKEFYDYDPTQPIGVVIRQAPEAGTTQTIGDSVTITINRA” here?
Its value is -0.116.

Which “soluble fraction (log2)” value does the source give for “HMEFFIIDHNGQQAGPFSFDQLVQKGISPETLVWKQGMADWNPAWKVEELKAVLEAVEANQSNQKAQ” here?
The value was 0.462.

With “HMQLKFTDLRKEILRMIWEGHGPQKAYDLLNKLQQTNPSAKPATVYRALDFLIGNGFIHKVASLNAFVG” as the sequence, how does the “soluble fraction (log2)” value read?
Its value is -0.668.

With “HMLTGDVDRYKDFFIALEKTSPVPIGFEKIIGGAHGYYHLEDKRIAIDEGMSELQTLKTAIHEIAHAKLHD” as the sequence, how does the “soluble fraction (log2)” value read?
The value was -0.14.

For “HMLRMTRNRQKLVEVLMESGRPLSADEIREAAGFASTDLVTVYRNLEAFQSAGLLQRIPLENGSQLFELT”, which “soluble fraction (log2)” value is on record?
The value was -0.478.

Which “soluble fraction (log2)” value does the source give for “HMGDFLLTPHRGRSADFVIGNPPYIRLEDVPNDISDAYRAEYASMPGRADIHVGFYEKGLDL” here?
Its value is -0.142.

With “HMDAYSYFIRTYPLVDDPLIGDIRRIFAETHDGNPAGDADVRHILWRLLFERELYPTLDEATADWY” as the sequence, how does the “soluble fraction (log2)” value read?
Its value is -2.54.

With “HMKTTKESLLEYIQREVFTDSIHKEGLSTNEIADAFQIQRSNVSSLLNTLVKEGKLEKTTGRPVLYRIPEK” as the sequence, how does the “soluble fraction (log2)” value read?
The value was 0.0655.

With “HMVSTGIMVVDGRGSVLQHNEAALRQLGVEVLTFESQVKEKLASEDFSVRETTAMLNGKKVRIIAFSDIR” as the sequence, how does the “soluble fraction (log2)” value read?
The value was -1.62.

Which “soluble fraction (log2)” value does the source give for “HMPFREGDEVFVELVEPHMYNEDDAVAKLDGYVVAVRGAAGLVGQKVLVRIERVGRSSAEATLVA” here?
The value was 0.109.

For “HMTANTQVENIRLELQRYMDEHGISQVTVARGIGKTHPVISQFLNNKYPGDVEEVARAIESWLTKQHEKAA”, which “soluble fraction (log2)” value is on record?
The value was -0.0876.

For “HMWNKGETKIPTQAQNELIKRRQAGATWTSLSEWLKATYGIDIHRTNIQRWYDKEVYLDQEN”, which “soluble fraction (log2)” value is on record?
Its value is -0.316.

With “HMIEKGSDALEKELRKNNLSINEFLTNKNIDIILDELKLKDIDDLYVNIALGKYTPNQIIKIVNK” as the sequence, how does the “soluble fraction (log2)” value read?
The value was 0.237.

Which “soluble fraction (log2)” value does the source give for “HMSDAGAIEPTIKEILASNPKAVEEYLAGNIKNINALIGQSMKALHGKADPQTVRNLLAKLLDEM” here?
The value was -0.219.

With “HMLTSAQLAEIRQAVRAGQASVVEDLLKNGASPNFRMENGDTGFTYAVRADTPQVAEALLKSGKL” as the sequence, how does the “soluble fraction (log2)” value read?
The value was -0.0678.

Which “soluble fraction (log2)” value does the source give for “HMSWEELLEHLEKAAERGEEVRIAGVTLHDEEDFKRALRWLKEWL” here?
Its value is -1.93.
